The values below come from article PMC7018876, “The novel llama-human chimeric antibody has potent effect in lowering LDL-c levels in hPCSK9 transgenic rats” (Clinical and Translational Medicine, 2020).

B1: VHH-B11 (VHH)
VHH: EVQLVESGGGSVQAGGSLRLSCTVSGYTYSSNCMGWFRQAPGKEHEGVASIYIGGGSTYYADSVKGRFTISQDNAKNTVYLQMNSLKPEDTAMYYCAVGCQGLVDFGYWDQGTQVTVSS
notes: llama anti-hPCSK9 VHH from an immune phage library; 17 kDa on SDS-PAGE; also called monovalent VHH-B11; monovalency VHH-B11; source: E. coli, supernatant of TES lysate (screening); E. coli induced by IPTG, and Pichia pastoris X33, purified (Histrap FF column)
B2: VHH-A6 (VHH)
VHH: PGAAAGVGGGSVQAGGSLRLSCAASRYTDRTRCIAWFRQVPGKEREGVACLDRAGGQSAYADSAKGRFTVSQDNAGNTVYLQMDNLIPEDSAMYYCAAAGVGQWYTCLQKFIRDKRSFANWGQGTQVTVSS
notes: llama anti-hPCSK9 VHH from an immune phage library; source: E. coli, supernatant of TES lysate (screening); E. coli induced by IPTG, and Pichia pastoris X33, purified (Histrap FF column)
B3: VHH-G8 (VHH)
VHH: DVQLVESGGGSVQAGGSLTLSCVVSGYRGQKICTGWFRQFPGMEREAVARILPRGPNTQYTDSVKGRFTISQDAAKNTVNLQMSSLKPKDTAMYYCAQGWGGASDWALQPRRYNYWGQGTQVTVSS
notes: as for B2
B4: VHH-H12 (VHH)
VHH: GGGLVQAGGSLRLSCAASRSTFSGYAMAWFRQAPGKEREFVACIEREIPGHPAWSGLTYYADSKKGRFTISRDNAKNTVYLQMNSLKPEDTAVYYCAAGLKYPAQKHYDYDYWGQGTQVTVPS
notes: as for B2

For one test, the target named is T1, human proprotein convertase subtilisin/kexin type 9, his tagged antigen (Homo sapiens, UniProt Q8NBP7).
T1 construct: human PCSK9; also called hPCSK9; PCSK9; source: bought: Sinobiological, China, Cat# 29698-H08H
T1 sequence (Q8NBP7 31-692): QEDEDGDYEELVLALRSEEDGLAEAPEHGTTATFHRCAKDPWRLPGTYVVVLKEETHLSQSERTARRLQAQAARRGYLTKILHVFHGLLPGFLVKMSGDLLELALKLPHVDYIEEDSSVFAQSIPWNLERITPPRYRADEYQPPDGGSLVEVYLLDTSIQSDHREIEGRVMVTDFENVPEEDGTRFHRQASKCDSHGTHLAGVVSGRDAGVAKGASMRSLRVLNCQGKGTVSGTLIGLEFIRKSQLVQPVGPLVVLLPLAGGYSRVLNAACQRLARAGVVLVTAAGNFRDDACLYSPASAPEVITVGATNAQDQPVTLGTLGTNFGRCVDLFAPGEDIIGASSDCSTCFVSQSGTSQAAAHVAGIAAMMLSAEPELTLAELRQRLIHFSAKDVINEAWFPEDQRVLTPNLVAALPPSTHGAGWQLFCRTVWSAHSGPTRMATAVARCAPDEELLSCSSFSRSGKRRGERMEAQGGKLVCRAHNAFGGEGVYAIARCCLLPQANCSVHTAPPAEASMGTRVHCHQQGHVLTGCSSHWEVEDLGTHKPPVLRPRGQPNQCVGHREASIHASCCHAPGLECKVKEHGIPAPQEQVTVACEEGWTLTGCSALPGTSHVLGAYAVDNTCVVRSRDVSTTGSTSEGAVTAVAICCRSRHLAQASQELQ
The test is described as follows: SPR; hPCSK9-his on CM5 chip (~800 RU); 6 or 7-point two-fold dilutions of the VHH-based proteins injected; 25 °C; global fit with floating Rmax; Biacore T200. The conditions noted are these: both partners purified. (Surface plasmon resonance follows binding to a sensor surface in real time, without labels.)
In general, Kd refers to a measure of binding affinity in units of concentration. What is called koff is the rate constant with which the complex falls apart. Low values mean slow dissociation, high ones fast dissociation. The kon is a measure of how fast the partners come together. A high value points to faster complex formation. The molecule B1 registered a Kd of 8.69 nM, an off-rate constant (koff) of 0.00235 s⁻¹ and a kon of 271000 M⁻¹ s⁻¹.

Turning to B2, the Kd was determined as 29 nM, the koff was 0.000447 s⁻¹ and the kon turned out to be 15400 M⁻¹ s⁻¹.

With B3, the Kd was determined as 73 nM, the koff is 0.0114 s⁻¹ and the association rate constant (kon) was found to be 162000 M⁻¹ s⁻¹.

Molecule B4 showed a dissociation constant Kd of 704 nM, a koff of 0.00524 s⁻¹ and an on-rate (kon) of 7440 M⁻¹ s⁻¹.

The target of a further test is T1, human proprotein convertase …. The test is described as follows: SPR; lysate kinetics screening; hPCSK9-his immobilised on CM5 chip (~18000 RU); supernatants of TES lysates of clones flowed over; 25 °C; binding 120 s, dissociation 140 s; binding value read at ~120 s, stability value at ~135 s; Biacore T200. The conditions noted are these: one partner purified.
B1: the “binding value (RU)” value came out at 409 RU and the “stability value (RU)” value was 472 RU.

With B2, the “binding value (RU)” value stood at 166 RU and the “stability value (RU)” value was 239 RU.

Turning to B3, the “binding value (RU)” value amounted to 132 RU and the “stability value (RU)” value came out at 160 RU.

Consider B4, for which the “binding value (RU)” value was 272 RU and the “stability value (RU)” value was found to be 373 RU.
